To fix the notation:
B1: construct 771: signal peptide, CAR19, the HilD tag, and a V5 (protein)
chain: MALPVTALLLPLALLLHAARPEIVMTQSPATLSLSPGERATLSCRASQDISKYLNWYQQKPGQAPRLLIYHTSRLHSGIPARFSGSGSGTDYTLTISSLQPEDFAVYFCQQGNTLPYTFGQGTKLEIKGGGGSGGGGSGGGGSQVQLQESGPGLVKPSETLSLTCTVSGVSLPDYGVSWIRQPPGKGLEWIGVIWGSETTYYQSSLKSRVTISKDNSKNQVSLKLSSVTAADTAVYYCAKHYYYGGSYAMDYWGQGTLVTVSSTTTPAPRPPTPAPTIASQPLSLRPEACRPAAGGAVHTRGLDFACDIYIWAPLAGTCGVLLLSLVITLYCKRGRKKLLYIFKQPFMRPVQTTQEEDGCSCRFPEEEEGGCELRVKFSRSADAPAYQQGQNQLYNELNLGRREEYDVLDKRRGRDPEMGGKPRRKNPQEGLYNELQKDKMAEAYSEIGMKGERRRGKGHDGLYQGLSTATKDTYDALHMQALPPRMHKRSHTGERPFQCNQCGASFTQKGNLLRHIKLHTGEKPFKCHLCNTASAEARHIKAEMGGKPIPNPLLGLDST
B2: construct 6761: signal peptide, CAR19, a 16KGS linker, the HilD tag, and a V5 (protein)
chain: MALPVTALLLPLALLLHAARPEIVMTQSPATLSLSPGERATLSCRASQDISKYLNWYQQKPGQAPRLLIYHTSRLHSGIPARFSGSGSGTDYTLTISSLQPEDFAVYFCQQGNTLPYTFGQGTKLEIKGGGGSGGGGSGGGGSQVQLQESGPGLVKPSETLSLTCTVSGVSLPDYGVSWIRQPPGKGLEWIGVIWGSETTYYQSSLKSRVTISKDNSKNQVSLKLSSVTAADTAVYYCAKHYYYGGSYAMDYWGQGTLVTVSSTTTPAPRPPTPAPTIASQPLSLRPEACRPAAGGAVHTRGLDFACDIYIWAPLAGTCGVLLLSLVITLYCKRGRKKLLYIFKQPFMRPVQTTQEEDGCSCRFPEEEEGGCELRVKFSRSADAPAYQQGQNQLYNELNLGRREEYDVLDKRRGRDPEMGGKPRRKNPQEGLYNELQKDKMAEAYSEIGMKGERRRGKGHDGLYQGLSTATKDTYDALHMQALPPRKGGGSKGGGTKGGGSKMHKRSHTGERPFQCNQCGASFTQKGNLLRHIKLHTGEKPFKCHLCNTASAEARHIKAEMGGKPIPNPLLGLDST
B3: construct 768: signal peptide, CAR19, a 16GS linker, the HilD tag, and a V5 (protein)
chain: B2 chain with K487G, K492G, K497G, K502G
B4: construct 769: signal peptide, CAR19, a 16GS linker, and the HilD tag (protein)
chain: EIVMTQSPATLSLSPGERATLSCRASQDISKYLNWYQQKPGQAPRLLIYHTSRLHSGIPARFSGSGSGTDYTLTISSLQPEDFAVYFCQQGNTLPYTFGQGTKLEIKGGGGSGGGGSGGGGSQVQLQESGPGLVKPSETLSLTCTVSGVSLPDYGVSWIRQPPGKGLEWIGVIWGSETTYYQSSLKSRVTISKDNSKNQVSLKLSSVTAADTAVYYCAKHYYYGGSYAMDYWGQGTLVTVSSTTTPAPRPPTPAPTIASQPLSLRPEACRPAAGGAVHTRGLDFACDIYIWAPLAGTCGVLLLSLVITLYCKRGRKKLLYIFKQPFMRPVQTTQEEDGCSCRFPEEEEGGCELRVKFSRSADAPAYQQGQNQLYNELNLGRREEYDVLDKRRGRDPEMGGKPRRKNPQEGLYNELQKDKMAEAYSEIGMKGERRRGKGHDGLYQGLSTATKDTYDALHMQALPPRGGGGSGGGGTGGGGSGMHKRSHTGERPFQCNQCGASFTQKGNLLRHIKLHTGEKPFKCHLCNTASAEARHIKAEMG
B5: construct 773: modified signal peptide, the HilD tag, a furin cleavage site, and CAR19 (protein)
chain: MALPVTALLLPLALLLHAARPRSSLAHKRSHTGERPFQCNQCGASFTQKGNLLRHIKLHTGEKPFKCHLCNTASAEARHIKAEMGGTGAEDPRPSRKRRSLGDVGEIVMTQSPATLSLSPGERATLSCRASQDISKYLNWYQQKPGQAPRLLIYHTSRLHSGIPARFSGSGSGTDYTLTISSLQPEDFAVYFCQQGNTLPYTFGQGTKLEIKGGGGSGGGGSGGGGSQVQLQESGPGLVKPSETLSLTCTVSGVSLPDYGVSWIRQPPGKGLEWIGVIWGSETTYYQSSLKSRVTISKDNSKNQVSLKLSSVTAADTAVYYCAKHYYYGGSYAMDYWGQGTLVTVSSTTTPAPRPPTPAPTIASQPLSLRPEACRPAAGGAVHTRGLDFACDIYIWAPLAGTCGVLLLSLVITLYCKRGRKKLLYIFKQPFMRPVQTTQEEDGCSCRFPEEEEGGCELRVKFSRSADAPAYQQGQNQLYNELNLGRREEYDVLDKRRGRDPEMGGKPRRKNPQEGLYNELQKDKMAEAYSEIGMKGERRRGKGHDGLYQGLSTATKDTYDALHMQALPPR
B6: construct 774: signal peptide, the HilD tag, a furin cleavage site, and CAR19 (protein)
chain: MALPVTALLLPLALLLHAARPHKRSHTGERPFQCNQCGASFTQKGNLLRHIKLHTGEKPFKCHLCNTASAEARHIKAEMGGTGAEDPRPSRKRRSLGDVGEIVMTQSPATLSLSPGERATLSCRASQDISKYLNWYQQKPGQAPRLLIYHTSRLHSGIPARFSGSGSGTDYTLTISSLQPEDFAVYFCQQGNTLPYTFGQGTKLEIKGGGGSGGGGSGGGGSQVQLQESGPGLVKPSETLSLTCTVSGVSLPDYGVSWIRQPPGKGLEWIGVIWGSETTYYQSSLKSRVTISKDNSKNQVSLKLSSVTAADTAVYYCAKHYYYGGSYAMDYWGQGTLVTVSSTTTPAPRPPTPAPTIASQPLSLRPEACRPAAGGAVHTRGLDFACDIYIWAPLAGTCGVLLLSLVITLYCKRGRKKLLYIFKQPFMRPVQTTQEEDGCSCRFPEEEEGGCELRVKFSRSADAPAYQQGQNQLYNELNLGRREEYDVLDKRRGRDPEMGGKPRRKNPQEGLYNELQKDKMAEAYSEIGMKGERRRGKGHDGLYQGLSTATKDTYDALHMQALPPR
B7: 771 (protein)
chain: B1 chain
B8: 773 (protein)
chain: B5 chain
B9: 774 (protein)
chain: B6 chain

Residue numbers refer to the chain shown, from its start.

In one test the test system is CAR19 fused to HilD tag and/or FurON. The test can be described thus: Flow cytometry of surface CAR expression on JNL cells, 10 μM lenalidomide and/or bazedoxifene 24 hours. The test is classed as cell-based, human. The note with it: 10 μM lenalidomide for 24 hours. (Flow cytometry measures light scatter and fluorescence of single cells or particles in a stream.)
From the text: Next, the surface expression of CAR19 on stably transduced JNL cells was examined by flow cytometry. […] On Day 2, cells were harvested, stained using biotinylated-protein L (Genscript, M00097) followed by PE conjugated streptavidin (Jackson Lab, 016-110-084), and subjected to flow cytometry analysis using Fortessa instrument.
For the molecule B1, the “effect of lenalidomide on surface CAR expression of the construct” value was “significantly reduced surface CAR expression”.
On the same count and under the same terms, the result for B2 reads “significantly reduced surface CAR expression”; that for B3, “significantly reduced surface CAR expression”.
Same read-out and setting: the result for B4 reads “significantly reduced surface CAR expression”; that for B5, “did not impact surface CAR expression”; that for B6, “did not impact surface CAR expression”.

Still in this test, the particulars now being: surface CAR on transduced JNL cells, 10 μM lenalidomide, 24 hours.
Regarding B7, the “% reduction in CAR expression” value amounted to 87% and the Effect of lenalidomide result is reported as “Yes”.
For B8, the “% reduction in CAR expression” value was 4% and the Effect of lenalidomide entry is “No”.
Taken in the same sequence, the figures for B9 were 5% and “No”.

The test is the same for the next values; noted with them: surface CAR on transduced JNL cells, flow cytometry; FurON constructs only in presence of bazedoxifene.
For B7, the “CAR Expression” value is recorded as “Yes”.
The same measure, in the same setting: the entry for B8 is “Yes”.
The same measure, in the same setting: the result for B9 reads “Yes”.

The values are drawn from patent US20220251152A1, “COMPOSITIONS AND METHODS FOR SELECTIVE PROTEIN DEGRADATION” (Novartis AG, priority 2019, published 2022).
